Test results taken from patent publication WO2017102789A1 (dated 2017).

Target: T1, human HER3 ECD (human, UniProt P21860 20-643)
T1 construct: also called hHER3-ECD; hu-HER3-ECD
Assay: SPR (Biacore T100), antibody captured by anti-Fc gamma antibody, human HER3 ECD 0-1000 nM as analyte, 25°C, Langmuir 1:1 model

Row | Kd | Binder
1 | 2 nM | Mab 205.10.1 (antibody, V domains shown, Humanized anti-HER3 antibody; Only variable domains are tied to it) VH: QVQLVQSGAEVKKPGASVKVSCKASGYTFRSSYISWVRQAPGQGLEWMGWIYAGTGSPSYNQKLQGRVTMTTDTSTSTAYMELRSLRSDDTAVYYCARHRDYYSNSLTYWGQGTLVTVSS VL: DIVMTQSPDSLAVSLGERATINCKSSQSLLNSGNQKNYLTWYQQKPGQPPKLLIYWASTRESGVPDRFSGSGSGTDFTLTISSLQAEDVAVYYCQSDYSYPYTFGQGTKLEIK
2 | 2 nM | Mab 205.10.3 (antibody, V domains shown, Humanized anti-HER3 antibody; Only variable domains are tied to it) VH: QVQLVQSGAEVKKPGASVKVSCKASGYTFRSSYISWVRQAPGQGLEWMGWIYAGTGSPSYNQKLQGRVTMTTDTSTSTAYMELRSLRSDDTAVYYCARHRDYYSNSLTYWGQGTLVTVSS VL: DIVMTQSPDSLAVSLGERATINCKSSQSLLNSGNQKNYLTWYQQKPGQPPKLLIYWASTRESGVPDRFSGSGSGTDFTLTISSLQAEDVSIYYCQSDYSYPYTFGQGTKLEIK
